According to publication PMC4605305, “TRAP150 interacts with the RNA-binding domain of PSF and antagonizes splicing of numerous PSF-target genes in T cells” (Nucleic Acids Research, 2015):

B5: GST-TRAPΔN (TRAP150 266-955) (domain or fragment, UniProt Q9Y2W1 266-955, looked up)
chain: RPSPVPKPSPPLSSTSQMGSTLPSGAGYQSGTHQGQFDHGSGSLSPSKKSPVGKSPPSTGSTYGSSQKEESAASGGAAYTKRYLEEQKTENGKDKEQKQTNTDKEKIKEKGSFSDTGLGDGKMKSDSFAPKTDSEKPFRGSQSPKRYKLRDDFEKKMADFHKEEMDDQDKDKAKGRKESEFDDEPKFMSKVIGANKNQEEEKSGKWEGLVYAPPGKEKQRKTEELEEESFPERSKKEDRGKRSEGGHRGFVPEKNFRVTAYKAVQEKSSSPPPRKTSESRDKLGAKGDFPTGKSSFSITREAQVNVRMDSFDEDLARPSGLLAQERKLCRDLVHSNKKEQEFRSIFQHIQSAQSQRSPSELFAQHIVTIVHHVKEHHFGSSGMTLHERFTKYLKRGTEQEAAKNKKSPEIHRRIDISPSTFRKHGLAHDEMKSPREPGYKAEGKYKDDPVDLRLDIERRKKHKERDLKRGKSRESVDSRDSSHSRERSAEKTEKTHKGSKKQKKHRRARDRSRSSSSSSQSSHSYKAEEYTEETEEREESTTGFDKSRLGTKDFVGPSERGGGRARGTFQFRARGRGWGRGNYSGNNNNNSNNDFQKRNREEEWDPEYTPKSKKYYLHDDREGEGSDKWVSRGRGRGAFPRGRGRFMFRKSSTSPKWAHDKFSGEEGEIEDDESGTENREEKDNIQPTTE
notes: pGEX-6-P1; also called GST-TRAP150ΔN; TRAP150-ΔN; source: E. coli Rosetta(DE3)pLysS, purified (glutathione sepharose, SEC); not shown: GST, N-terminal, kept

Assays:
PSF exRRM1 = target: T1, PSF exRRM1 (human, UniProt P23246 266-365); test: EMSA; unmeasurable affinity; UV crosslinking: 12 mM Tris pH 7.5, 120 mM NaCl, 3 mM MgCl2, 1 mM ATP, 20 mM phosphocreatine, 0.1 mM EDTA, 12% glycerol, 1.3% PVA, 25 ng/ul yeast tRNA, 20 ng/ul; conditions: protein: recombinant; tags: 6xHis-FLAG N-term; label: uniform 32P
T1 sequence: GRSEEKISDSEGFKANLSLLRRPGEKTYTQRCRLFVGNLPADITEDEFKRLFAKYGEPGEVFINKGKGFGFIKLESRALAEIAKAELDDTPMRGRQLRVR

PSF exRRM2 = target: T2, PSF exRRM2 (human, UniProt P23246 366-484); test: EMSA; UV crosslinking: 12 mM Tris pH 7.5, 120 mM NaCl, 3 mM MgCl2, 1 mM ATP, 20 mM phosphocreatine, 0.1 mM EDTA, 12% glycerol, 1.3% PVA, 25 ng/ul yeast tRNA, 20 ng/ul; conditions: protein: recombinant; tags: 6xHis-FLAG N-term; label: uniform 32P
T2 sequence: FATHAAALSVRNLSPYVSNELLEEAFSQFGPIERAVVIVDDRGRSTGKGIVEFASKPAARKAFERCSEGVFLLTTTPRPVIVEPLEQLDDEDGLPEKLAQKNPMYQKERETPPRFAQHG

PSF exRRMs = target: T3, PSF exRRMs (human, UniProt P23246 266-484); test: as above; conditions: protein: recombinant; tags: 6xHis-FLAG N-term; label: uniform 32P
T3 sequence: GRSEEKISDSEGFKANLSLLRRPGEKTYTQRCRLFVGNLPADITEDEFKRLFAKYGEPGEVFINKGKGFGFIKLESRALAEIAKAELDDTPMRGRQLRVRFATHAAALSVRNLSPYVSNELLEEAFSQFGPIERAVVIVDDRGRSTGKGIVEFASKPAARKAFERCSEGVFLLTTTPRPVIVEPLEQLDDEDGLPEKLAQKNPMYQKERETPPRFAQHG

[1] = target: B5; test: pull-down; 40 ug GST-tagged bait on glutathione sepharose 4B beads; prey incubated 1.5 h at 4°C in PBS; washes with PBS supplemented with 300 mM NaCl; western blot; conditions: both partners purified
[2] = target: T4, HisFLAG-PSF exRRMs (266-484) (UniProt P23246 266-484); test: as above; conditions: both partners purified
T4 construct: also called HisFLAG-exRRMs; HFexRRM1+2; source: E. coli Rosetta(DE3)pLysS, purified (Ni-NTA, SEC); not shown: His6, N-terminal, kept; FLAG, N-terminal, kept
T4 sequence (looked up): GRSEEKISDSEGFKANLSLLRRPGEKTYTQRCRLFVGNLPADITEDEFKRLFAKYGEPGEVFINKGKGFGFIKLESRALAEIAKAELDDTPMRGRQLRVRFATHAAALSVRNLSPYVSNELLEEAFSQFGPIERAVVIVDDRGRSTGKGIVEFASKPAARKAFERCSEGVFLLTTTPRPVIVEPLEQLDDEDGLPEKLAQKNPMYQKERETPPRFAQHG

[3] = target: T4, HisFLAG-PSF exRRMs (266-484); test: pull-down; Gb1-tagged TRAP150 686-755 precipitated with IgG beads; HisFLAG-exRRMs detected; conditions: both partners purified
HisFLAG-PSF full length = target: T5, HisFLAG-PSF full length (UniProt P23246 1-707); test: pull-down; 40 ug GST-tagged bait on glutathione sepharose 4B beads; prey incubated 1.5 h at 4°C in PBS; washes with PBS supplemented with 300 mM NaCl; western blot; conditions: both partners purified
T5 construct: PSF (SFPQ), full length; pet15b with an inserted FLAG tag; also called PSF-FL; full length His-tagged PSF; source: E. coli Rosetta(DE3)pLysS, purified (Ni-NTA, SEC); not shown: His6, N-terminal, kept; FLAG, N-terminal, kept
T5 sequence (looked up): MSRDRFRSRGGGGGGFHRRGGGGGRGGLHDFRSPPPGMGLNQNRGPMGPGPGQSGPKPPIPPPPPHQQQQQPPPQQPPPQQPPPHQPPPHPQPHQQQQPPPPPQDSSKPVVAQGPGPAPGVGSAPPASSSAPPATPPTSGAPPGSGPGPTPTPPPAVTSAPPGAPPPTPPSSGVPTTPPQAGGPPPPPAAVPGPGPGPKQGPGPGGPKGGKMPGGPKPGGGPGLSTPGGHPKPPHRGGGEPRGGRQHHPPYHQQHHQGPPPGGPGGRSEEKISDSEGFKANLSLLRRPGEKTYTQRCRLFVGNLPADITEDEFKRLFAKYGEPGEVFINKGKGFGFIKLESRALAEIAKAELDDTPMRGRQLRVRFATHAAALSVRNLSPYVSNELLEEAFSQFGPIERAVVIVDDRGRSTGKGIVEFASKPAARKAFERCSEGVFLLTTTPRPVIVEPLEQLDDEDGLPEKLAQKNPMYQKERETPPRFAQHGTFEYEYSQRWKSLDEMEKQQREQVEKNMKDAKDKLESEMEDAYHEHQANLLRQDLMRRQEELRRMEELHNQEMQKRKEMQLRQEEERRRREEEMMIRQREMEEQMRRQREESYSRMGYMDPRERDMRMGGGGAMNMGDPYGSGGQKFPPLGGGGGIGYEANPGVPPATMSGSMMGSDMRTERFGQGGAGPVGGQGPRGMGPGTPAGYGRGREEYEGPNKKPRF

B1: MKK7 (ssRNA)
RNA: CCUCCUCGUUUAUGAUUUGAUUUCUUUUCUUUUGGACGAAUCGGUCGUUUCUGUUGUGAUUUAUCGUGGUGUUGUUUUUUUCUUCCUUUUCCCCAUCCAG
**Q.** Which results are given for B1?
**A.** binding result (PSF exRRM1): no binding; binding result (PSF exRRM2): binds; binding result (PSF exRRMs): binds

B2: HisFLAG-PSF ΔRRM2 (natural protein)
chain: MSRDRFRSRGGGGGGFHRRGGGGGRGGLHDFRSPPPGMGLNQNRGPMGPGPGQSGPKPPIPPPPPHQQQQQPPPQQPPPQQPPPHQPPPHPQPHQQQQPPPPPQDSSKPVVAQGPGPAPGVGSAPPASSSAPPATPPTSGAPPGSGPGPTPTPPPAVTSAPPGAPPPTPPSSGVPTTPPQAGGPPPPPAAVPGPGPGPKQGPGPGGPKGGKMPGGPKPGGGPGLSTPGGHPKPPHRGGGEPRGGRQHHPPYHQQHHQGPPPGGPGGRSEEKISDSEGFKANLSLLRRPGEKTYTQRCRLFVGNLPADITEDEFKRLFAKYGEPGEVFINKGKGFGFIKLESRALAEIAKAELDDTPMRGRQLRVRFATHAGGSGHMLEQLDDEDGLPEKLAQKNPMYQKERETPPRFAQHGTFEYEYSQRWKSLDEMEKQQREQVEKNMKDAKDKLESEMEDAYHEHQANLLRQDLMRRQEELRRMEELHNQEMQKRKEMQLRQEEERRRREEEMMIRQREMEEQMRRQREESYSRMGYMDPRERDMRMGGGGAMNMGDPYGSGGQKFPPLGGGGGIGYEANPGVPPATMSGSMMGSDMRTERFGQGGAGPVGGQGPRGMGPGTPAGYGRGREEYEGPNKKPRF
notes: PSF (SFPQ) residues 1-370; linker joining the N- and C-terminal portions; PSF (SFPQ) residues 450-707; source: E. coli Rosetta(DE3)pLysS, purified (Ni-NTA, SEC); not shown: His6, N-terminal, kept; FLAG, N-terminal, kept
**Q.** Does B2 bind [1]?
**A.** binds

B3: GST-TRAP150 686–755 (PSF-interacting domain, PID) (domain or fragment, UniProt Q9Y2W1 686-755, looked up)
chain: FRKHGLAHDEMKSPREPGYKAEGKYKDDPVDLRLDIERRKKHKERDLKRGKSRESVDSRDSSHSRERSAE
notes: also called GST-TRAP(PID); TRAP150 PID; source: E. coli Rosetta(DE3)pLysS, purified (glutathione sepharose, SEC); not shown: GST, N-terminal, kept
**Q.** Does B3 bind [2]?
**A.** binds

B4: Gb1-tagged TRAP150 686–755 (TRAP-PID) (domain or fragment, UniProt Q9Y2W1 686-755, looked up)
chain: FRKHGLAHDEMKSPREPGYKAEGKYKDDPVDLRLDIERRKKHKERDLKRGKSRESVDSRDSSHSRERSAE
notes: 6xHis + GB1 fusion vector pGβ1; also called Gb1-tagged construct of the TRAP-PID; source: E. coli Rosetta(DE3)pLysS, purified (Ni-NTA, SEC)
**Q.** Does B4 bind [3]?
**A.** binds

**Q.** Does B5 bind (HisFLAG-PSF full length)?
**A.** binds

B6: SRL-1 (ssRNA)
RNA: AACCAAGAGGUUUCUCGCGUAUUUCUCUCAUUUUUUUACCCAUUUUACAAAUUUUUUUUGCUAUUUGAGCCAUAGUACCCAUUAAUAGGUCUCGUCCAUUCCCUUGUUUUUUUUUUAUUGUUUCAAUUACACUACAUAAUUAAAAAUCACAUCACUUUCACUCUCACCUUAGUCGUUCUUUAUCAACCAAAAAUAAAAAAAUGCUUCAAUCCGUUGUCUU
**Q.** Does B6 bind (PSF exRRM1)?
**A.** no binding

**Q.** Does B6 bind (PSF exRRM2)?
**A.** binds

**Q.** Does B6 bind (PSF exRRMs)?
**A.** binds

B7: GST-TRAP150 580–755 (domain or fragment, UniProt Q9Y2W1 580-755, looked up)
chain: LARPSGLLAQERKLCRDLVHSNKKEQEFRSIFQHIQSAQSQRSPSELFAQHIVTIVHHVKEHHFGSSGMTLHERFTKYLKRGTEQEAAKNKKSPEIHRRIDISPSTFRKHGLAHDEMKSPREPGYKAEGKYKDDPVDLRLDIERRKKHKERDLKRGKSRESVDSRDSSHSRERSAE
notes: source: E. coli Rosetta(DE3)pLysS, purified (glutathione sepharose, SEC); not shown: GST, N-terminal, kept
**Q.** Does B7 bind [2]?
**A.** binds

B8: HisFLAG-PSF ΔRRM1 (natural protein)
chain: MSRDRFRSRGGGGGGFHRRGGGGGRGGLHDFRSPPPGMGLNQNRGPMGPGPGQSGPKPPIPPPPPHQQQQQPPPQQPPPQQPPPHQPPPHPQPHQQQQPPPPPQDSSKPVVAQGPGPAPGVGSAPPASSSAPPATPPTSGAPPGSGPGPTPTPPPAVTSAPPGAPPPTPPSSGVPTTPPQAGGPPPPPAAVPGPGPGPKQGPGPGGPKGGKMPGGPKPGGGPGLSTPGGHPKPPHRGGGEPRGGRQHHPPYHQQHHQGPPPGGPGGRSEEKISDSEGFKANLSLLRRPGEKTYTQRCRGGSGHMATHAAALSVRNLSPYVSNELLEEAFSQFGPIERAVVIVDDRGRSTGKGIVEFASKPAARKAFERCSEGVFLLTTTPRPVIVEPLEQLDDEDGLPEKLAQKNPMYQKERETPPRFAQHGTFEYEYSQRWKSLDEMEKQQREQVEKNMKDAKDKLESEMEDAYHEHQANLLRQDLMRRQEELRRMEELHNQEMQKRKEMQLRQEEERRRREEEMMIRQREMEEQMRRQREESYSRMGYMDPRERDMRMGGGGAMNMGDPYGSGGQKFPPLGGGGGIGYEANPGVPPATMSGSMMGSDMRTERFGQGGAGPVGGQGPRGMGPGTPAGYGRGREEYEGPNKKPRF
notes: PSF (SFPQ) residues 1-298; linker joining the N- and C-terminal portions; PSF (SFPQ) residues 367-707; source: E. coli Rosetta(DE3)pLysS, purified (Ni-NTA, SEC); not shown: His6, N-terminal, kept; FLAG, N-terminal, kept
**Q.** Does B8 bind [1]?
**A.** binds
